The values below come from patent publication US20220235344A1, “TRYPSIN VARIANTS WITH IMPROVED ENZYMATIC PROPERTIES” (BIOPHARMA TRANSLATIONSINSTITUT DESSAU FORSCHUNGS GMBH, priority 2018, published 2022).

Values joined by “and” are separate entries in the source; they are usually repeats but may differ in a detail not shown here. Equal entries are not always repeated.

What all share (assay type): biochemical
The subject of series [1] is Bz-PGGYRAHAG-OH (acyl donor) / H-RAHAK(DNP)-OH (acyl acceptor). Nature of the series: Maximum product yield of transamidation (Table 7). The note with it: Zinc ions (100 μM): no; two equivalents of acyl acceptor and 250 μM acyl donor. As for the experimental part:
(§1) Model transamidation reactions were performed in a solution containing 15 to 250 μM acyl donor, 2 eq. of the corresponding acyl acceptor, varying concentrations of trypsin variant, 100 mM HEPES/NaOH pH 7.8, ±0.1 mM ZnC12, 100 mM NaCl, 10 mM CaCl2) at 30° C. Acyl donor and acyl acceptor had the same amino acids in P1′-P3′ position, e.g. Bz-[…]+H-RAHAK-OH or Bz-[…]+H-RKKAK-OH. Variations are indicated. The acyl acceptor could be equipped with a 2,4-Dinitrophenyl group (DNP) at the side chain of the terminal lysine, e.g. H-RAHAK(DNP)-OH or H-RKKAK(DNP)-OH. The reactions were started by the addition of enzyme. To record the time course of product formation and/or for kinetic evaluation of the reaction several aliquots of the reaction mixture were quenched with 25% (v/v) acetic acid at distinct time points within up to 4 hours. The composition of the reaction mixture was analyzed by UPCL with method I or II, depending on the absence (method 1) or presence (method II) of a 2,4-dinitrophenyl group within the acyl acceptor (see example 1). Measurements were performed as duplicates and errors were less than 5%.

The subject of series [2] is Bz-PGGYRAHAG-OH / RAHAK-OH (YRAH substrate). Nature of the series: Enzymatic activity and maximum product yield of Trypsiligase II-library variants, YRAH substrate. The following applies: for AS A[YRAH]/AS A + H[YRAH] / YRAH/YRKH, quotient of max. product yield for YRAH subtrate/YRKH substrate: Table 3; for Pmax vs YRAH (%): Table 3, first column group. The method, then:
as §1
(§2) On the basis of these investigations the mutated positions of these two variants 2G10 and 1C11 have been combined in a new enzyme library based on trypsin variant Y39H/Y59H/K60E/D189K (Trypsiligase II), so that the variants resulting from this library benefit from both positive effects and are thus further optimized. Accordingly, positions 40, 55, 96, 97, 143, 151, 190, 192, 214, 219 and 221 were randomized in this Trypsiligase II library, while the mutation L99F was fixed because it was present in both Trypsiligase I libraries A and B. Positions 143 and 151 in Trypsiligase I are responsible for zinc complexation and thus convey histidine specificity for the recognition sequence YRH. In Trypsiligase II, this histidine specificity is shifted by positions 39 and 59, resulting in the recognition sequence YRAH. Thus, positions 143 and 151, which are potentially responsible for P2′ position specificity, are available for randomization in the Trypsiligase II library. In addition to the desired effect of increasing the affinity to the substrate/nucleophile, this could also lead to a possible independence of zinc complexation, which would be desirable with regard to the application-oriented modification of recombinant proteins. Using phage display and an ELISA-based screening, the Trypsiligase II variants illustrated in Table 3 and 4 have been identified.

For series [3], the system named is Bz-PGGYRKKAG-OH (acyl donor) / H-RKKAK-OH (acyl acceptor). Nature of the series: Model transamidation at high and low substrate concentrations, A2C8 and K7F11. The note with it: for product yield (%) / kcat, AL^app (mkat/mol) / kcat, AL^app/kcat, HL^app / kcat, HL^app (mkat/mol): no ZnCl2. As for the experimental part: as §1
The suitability of variant A2C8 and K7F11 as transamidases was further investigated in comparison to the native Trypsiligase II. Therefore the enzymatic parameters for the catalyzed transamidation reaction were determined by a model transamidation reaction using peptide substrates with the preferred recognition motive. In addition the model transamidation reaction was performed at high (250 μM) and low (15 μM) substrate concentrations to check, whether the new biocatalysts could also efficiently catalyze the desired reaction at low substrate concentration, which is a crucial requirement for the modification of therapeutic proteins. […] It was assumed that an improved transamidation activity is reached by introducing mutations which improve the affinity of the biocatalyst for the nucleophilic peptide and/or reduce its hydrolysis activity. Therefore corresponding experimental data describing both parameters for the native Trypsiligase II as well as variant A2C8 were determined.

Series [4] has as its system H-RAHAK(DNP)-OH (acyl acceptor), acyl donor Bz-PGGYRAHAG-OH. Nature of the series: KM value of the nucleophilic peptide (acyl acceptor). The note with it: for Km: Zinc ions: no, 250 μM Bz-PGGYRAHAG-OH, varying H-RAHAK(DNP)-OH. As for the experimental part:
For Trypsiligase II the measurements for KM values of the nucleophilic peptide (acyl acceptor) were carried out in the presence or absence of zinc ions due to its strong zinc ion dependency. In case of variant A2C8 measurements were carried out in the absence of zinc ions.
Transamidation reactions with Trypsiligase II and variant A2C8 were performed in a solution containing 250 μM of the acyl donor Bz-[…]-OH, varying concentrations of the acyl acceptor H-RAHAK(DNP)-OH (0-5000 μM for Trypsiligase II in the absence of zinc ions, 0-1500 μM for Trypsiligase II in the presence of zinc ions, 0-1000 μM for variant A2C8), 0.2-1.5 μM trypsin variant, 100 mM HEPES/NaOH pH 7.8, ±0.1 mM ZnCl2, 100 mM NaCl, 10 mM CaCl2 at 30° C. The reaction was started by the addition of enzyme. For kinetic evaluation of the reaction several aliquots of the reaction mixture were quenched with 25% (v/v) acetic acid at distinct time points within 30 minutes. The composition of the reaction mixture was analyzed by UPCL using method II (see example 1). UV absorption of the 2,4-Dinitrophenyl group (DNP), which is present in the acyl acceptor as well as in the aminolysis product, was detected at 360 nm. To determine the KM value of the nucleophilic peptide the initial rates for the aminolysis reaction were plotted against the corresponding acyl acceptor concentration and fitted to the Michaelis Menten equation. Measurements were performed as duplicates and errors were less than 5%.

Series [5] concerns Bz-PGGYRKHAG-OH / RKHAK-OH (YRKH substrate). Nature of the series: Enzymatic activity and maximum product yield of Trypsiligase II-library variants, YRKH substrate. The following applies: for PPmax vs YRAH (%): 100 μM Bz-PGGYR(A/K)HAG-OH, 200 μM R(A/K)HAK-OH, 100 μM ZnCl2, pH 7.8, 30° C. As for the experimental part:
as §1, §2

Where [6] appears, read: 100 μM Bz-PGGYR(A/K)HAG-OH, 200 μM R(A/K)HAK-OH, 100 μM ZnCl2, pH 7.8, 30° C.
[7] abbreviates: Table 3, group (YRAH), 100 μM ZnCl2.
Where [8] appears, read: low substrate concentration (15 μM).

B1: A2C8: Trypsiligase II + H40F, A55A, R96E, K97D, L99F, N143E, E151Y, S190V, Q192A, S214G, G219Q, A221T (protein)
chain: IVGGYTCQENSVPYQVSLNSGHFFCGGSLINDQWVVSAAHCHESRIQVRLGEHNINVLEGNEQFVNAAKIIKHPNFDEDTFNNDIMLIKLSSPVKLNARVATVALPSSCAPAGTQCLISGWGETLSSGVNYPDLLQCLDAPLLPQADCEASYPGKITDNMVCVGFLEGGKKVCAGDSGGPVVCNGELQGIVGWGYQCTLPDNPGVYTKVCNYVDWIQDTIAAN
For the molecule B1, in series [1], the “product yield (%)” value is 59.7%. In series [2], the “AS A[YRAH]/AS A + H[YRAH]” value came out at 1.6 and the “YRAH/YRKH, quotient of max. product yield for YRAH subtrate/YRKH substrate” value stood at 1.0. Further, the “Pmax vs YRAH (%)” value in series [2] (setting [6]) amounted to 53.1%. In addition, in series [2] (Table 3, group (YRAH)), the “AS A/H, quotient of aminolysis/hydrolysis activity” value is reported as 10.9. Besides, in series [2] (setting [7]), the “AS[AL] (mkat/mol), specific aminolysis activity” value is reported as 15.8 mkat/mol and the “AS[HL] (mkat/mol), specific hydrolysis activity” value amounted to 1.5 mkat/mol. Also, the “product yield (%)” value in series [3] ([Substrate] 15 μM Bz-PGGYRKKAG-OH, 30 μM H-RKKAK-OH) was 46% and 46.2%. Moreover, in series [3] ([Substrate] 15 μM), the “kcat, AL^app (mkat/mol)” value was found to be 10.68 mkat/mol; the “kcat, AL^app/kcat, HL^app” value was 7.4; the “kcat, HL^app (mkat/mol)” value is on record as 1.44 mkat/mol. In addition, in series [3] ([Substrate] 250 μM Bz-PGGYRKKAG-OH, 500 μM H-RKKAK-OH), the “product yield (%)” value was 64.9%. For the same molecule, in series [3] ([Substrate] 250 μM), the “kcat, AL^app (mkat/mol)” value worked out at 71.61 mkat/mol; the “kcat, AL^app/kcat, HL^app” value was 70 and 70.9; the “kcat, HL^app (mkat/mol)” value was found to be 1.01 mkat/mol. In series [3] (setting [8]), the “apparent turnover rate of aminolysis relative to hydrolysis” value is “sevenfold higher apparent turnover rate” and the “fold higher product yield than the native Trypsiligase II” value is on record as 14. In addition, the “improvement of the enzyme affinity for the nucleophilic peptide versus native Trypsiligase II (factor)” value in series [4] (Trypsiligase II in the absence of zinc ions) is 92. The “improvement of the enzyme affinity for the nucleophilic peptide versus native Trypsiligase II (factor)” value in series [4] (Trypsiligase II in the presence of zinc ions) stood at 8. The Km in series [4] turned out to be 17.6 µM. In series [5] (Table 3), the “AS A/H, quotient of aminolysis/hydrolysis activity” value was found to be 6.9 and the “PPmax vs YRAH (%)” value was 51.3%. Further, in series [5] (Table 3, 100 μM ZnCl2), the “AS[AL] (mkat/moL), specific aminolysis activity” value came to 8.9 mkat/moL and the “AS[HL] (mkat/moL), specific hydrolysis activity” value was 1.3 mkat/moL.

B2: Trypsiligase II (trypsin variant Y39H/Y59H/K60E/D189K) (protein)
chain: IVGGYTCQENSVPYQVSLNSGHHFCGGSLINDQWVVSAAHCHESRIQVRLGEHNINVLEGNEQFVNAAKIIKHPNFDRKTLNNDIMLIKLSSPVKLNARVATVALPSSCAPAGTQCLISGWGNTLSSGVNEPDLLQCLDAPLLPQADCEASYPGKITDNMVCVGFLEGGKKSCQGDSGGPVVCNGELQGIVSWGYGCALPDNPGVYTKVCNYVDWIQDTIAAN
As for B2, in series [1], the “product yield (%)” value stood at 4.2%. Further, the “AS A[YRAH]/AS A + H[YRAH]” value in series [2] is 0.1; in series [5] (Table 4) it was 0.0. Also, the “YRAH/YRKH, quotient of max. product yield for YRAH subtrate/YRKH substrate” value in series [2] is recorded as 6.0. For the same molecule, the “Pmax vs YRAH (%)” value in series [2] (setting [6]) came out at 8.9%. The “AS A/H, quotient of aminolysis/hydrolysis activity” value is on record as 0.3 in series [2] (Table 3, group (YRAH)); 0.3 in series [2] (Table 4); 0.0 in series [5] (Table 3); 0.0 in series [5] (Table 4). Besides, the “AS[AL] (mkat/mol), specific aminolysis activity” value in series [2] (setting [7]) is 2.4 mkat/mol; in series [5] (Table 4, 100 μM ZnCl2), 0.5 mkat/mol. Besides, the “AS[HL] (mkat/mol), specific hydrolysis activity” value was determined as 7.8 mkat/mol in series [2] (setting [7]) and 16.3 mkat/mol in series [5] (Table 4, 100 μM ZnCl2). The “PPmax vs YRAH (%)” value in series [2] (Table 4, 100 μM Bz-PGGYR(A/K)HAG-OH, 200 μM R(A/K)HAK-OH, 100 μM ZnCl2, pH 7.8, 30° C.) came to 8.9%; in series [5] (Table 3) it was 1.5%; in series [5] (Table 4) it was 1.5%. The “AS[AL] (mkat/moL), specific aminolysis activity” value in series [2] (Table 4, 100 μM ZnCl2) is on record as 2.4 mkat/moL; in series [5] (Table 3, 100 μM ZnCl2), 0.5 mkat/moL. Also, the “AS[HL] (mkat/moL), specific hydrolysis activity” value stood at 7.8 mkat/moL in series [2] (Table 4, 100 μM ZnCl2) and 16.3 mkat/moL in series [5] (Table 3, 100 μM ZnCl2). For the same molecule, the Km in series [4] is 1630 µM. The “YRAH/YRKH, quotient of max. product yield” value in series [5] (Table 4) is listed as 0.2.
